# Assay results published in patent publication US20020098193A1.
# B1: complete murine IgG1 molecule (antibody, part only; not given: variable domains and Fab arms, not shown: another chain or arm of the molecule)
# Fc: VPRDCGCKPCICTVPEVSSVFIFPPKPKDVLTITLTPKVTCVVVDISKDDPEVQFSWFVDDVEVHTAQTQPREEQFNSTFRSVSELPIMHQDWLNGKEFKCRVNSAAFPAPIEKTISKTKGRPKAPQVYTIPPPKEQMAKDKVSLTCMITDFFPEDITVEWQWNGQPAENYKNTQPIMNTNGSYFVYSKLNVQKSNWEAGNTFTCSVLHEGLHNHHTEKSLSHSPGK
# modifications: Glycosylated whole IgG1 from hybridoma or mammalian cells; used free, 125I-labelled or coupled to Sepharose. Two heavy chains are joined at the hinge.
# Key:
# [1] = molecular target: recombinant soluble mouse FcRn (mouse) (UniProt Q61559); assay: inhibition of 125I-sFcRn binding to murine IgG1-Sepharose; molar ratio of inhibitor/FcRn given as 1/500
# [2] = molecular target: recombinant soluble mouse FcRn (mouse) (UniProt Q61559); assay: inhibition of 125I-sFcRn binding to murine IgG1-Sepharose; molar ratio of inhibitor/FcRn given as 1/1000
# [3] = molecular target: T1, FcRn of neonatal mouse intestine (mouse) (UniProt Q61559); assay: cell-based or functional assay
# T1 sequence (looked up): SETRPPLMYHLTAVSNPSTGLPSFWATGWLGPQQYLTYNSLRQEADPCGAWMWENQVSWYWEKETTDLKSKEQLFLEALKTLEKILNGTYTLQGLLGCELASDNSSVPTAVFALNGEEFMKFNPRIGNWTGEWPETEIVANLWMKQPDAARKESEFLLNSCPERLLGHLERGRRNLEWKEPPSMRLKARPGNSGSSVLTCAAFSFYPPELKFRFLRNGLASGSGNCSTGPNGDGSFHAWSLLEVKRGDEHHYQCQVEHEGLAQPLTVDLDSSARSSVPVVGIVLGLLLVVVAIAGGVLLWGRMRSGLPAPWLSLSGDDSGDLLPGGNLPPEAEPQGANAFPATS
# T1 sequence (b2m, looked up): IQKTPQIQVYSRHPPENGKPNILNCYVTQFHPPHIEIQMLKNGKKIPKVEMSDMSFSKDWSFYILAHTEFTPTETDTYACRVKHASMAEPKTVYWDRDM
binder,measurement,setting,value
B1,% inhibition,[1],24.7%
same,% inhibition,[2],45.6%
same,Inhibition of transmission (%) of radiolabeled mIgG1 across the intestine of neonatal mice,[3],51.4%
